Positions count from the first letter of the chain named.

Here are results for eleven proteins from the PETadex activity labels (doi:10.1021/acscatal.9b00568).

The labels stand for the following.
B1: unnamed (protein)
chain: MNFPRASRLMQAAVLGGLMAVSAAATAQTNPYARGPNPTAASLEASAGPFTVRSFTVSRPSGYGAGTVYYPTNAGGTVGAIAIVPGYTARQSSIKWWGPRLASHGFVVITIDTNSTLDQPESRSSQQMAALRQVASLNGTSSSPIYGKVDTARMGVMGWSMGGGGSLISAANNPSLKAAAPQAPWHSSTNFSSVTVPTLIFACENDSIAPVNSSALPIYDSMSRNAKQFLEINGGSHSCANSGNSNQALIGKKGVAWMKRFMDNDTRYSTFACENPNSTAVSDFRTANCS
B2: unnamed (protein)
chain: B1 chain with E121S, P181S, H186D, A280R
B3: unnamed (protein)
chain: B1 chain with E121S, H186F, A280R
B4: unnamed (protein)
chain: B1 chain with E121S, P181A, H186D, A280R
B5: unnamed (protein)
chain: B1 chain with E121D, H186D, A280R
B6: unnamed (protein)
chain: B1 chain with E121S, H186L, A280R
B7: unnamed (protein)
chain: B1 chain with E121S, H186V, A280R
B8: unnamed (protein)
chain: B1 chain with E121S, P181G, H186D, A280R
B9: unnamed (protein)
chain: B1 chain with E121D, A280R
B10: unnamed (protein)
chain: B1 chain with E121S, H186D, A280R
B11: unnamed (protein)
chain: B1 chain with H186D, A280R

Substrate in one data set: PET
Kind of data set: Proxy for plastic degradation [HPLC-UV]. The following applies: pH 9; 30 °C; 0 h; part of the chain shown.
Consider B1, for which the “Proxy for plastic degradation” value came out at 0 µM.

B10: the “Proxy for plastic degradation” value was 0 µM.

The data set is the same for the next values; noted with them: pH 9; 30 °C; 1 h; part of the chain shown.
Turning to B1, the “Proxy for plastic degradation” value worked out at 25 µM.

Turning to B10, the “Proxy for plastic degradation” value was determined as 5 µM.

Staying with this data set, now noted: pH 9; 30 °C; 2 h; part of the chain shown.
B1: the “Proxy for plastic degradation” value was determined as 42 µM.

Take B10: the “Proxy for plastic degradation” value stood at 7 µM.

Staying with this data set, now noted: pH 9; 30 °C; 3 h; part of the chain shown.
For the protein B1, the “Proxy for plastic degradation” value is 50 µM.

B10: the “Proxy for plastic degradation” value came to 10 µM.

Still in this data set, the particulars now being: pH 9; 30 °C; 4 h; part of the chain shown.
As to B1, the “Proxy for plastic degradation” value was 55 µM.

For the protein B10, the “Proxy for plastic degradation” value amounted to 11 µM.

Staying with this data set, now noted: pH 9; 30 °C; 5 h; part of the chain shown.
For B1, the “Proxy for plastic degradation” value was 68 µM.

For the protein B10, the “Proxy for plastic degradation” value came out at 11 µM.

The same data set, now with this note: pH 9; 30 °C; 6 h; part of the chain shown.
As to B1, the “Proxy for plastic degradation” value amounted to 70 µM.

Regarding B10, the “Proxy for plastic degradation” value was found to be 12 µM.

The same data set, now with this note: pH 9; 30 °C; 7 h; part of the chain shown.
With B1, the “Proxy for plastic degradation” value came out at 80 µM.

Consider B10, for which the “Proxy for plastic degradation” value turned out to be 14 µM.

The same data set, now with this note: pH 9; 30 °C; 8 h; part of the chain shown.
Turning to B1, the “Proxy for plastic degradation” value came out at 75 µM.

Consider B10, for which the “Proxy for plastic degradation” value was 15 µM.

The data set is the same for the next values; noted with them: pH 9; 30 °C; 9 h; part of the chain shown.
B1: the “Proxy for plastic degradation” value was determined as 90 µM.

Consider B10, for which the “Proxy for plastic degradation” value was 13 µM.

The data set is the same for the next values; noted with them: pH 9; 30 °C; 10 h; part of the chain shown.
On to B1, for which the “Proxy for plastic degradation” value was 92 µM.

Regarding B10, the “Proxy for plastic degradation” value was 15 µM.

The data set is the same for the next values; noted with them: pH 9; 40 °C; 0 h; part of the chain shown.
In the case of B1, the “Proxy for plastic degradation” value was found to be 0 µM.

Consider B10, for which the “Proxy for plastic degradation” value was 0 µM.

Staying with this data set, now noted: pH 9; 40 °C; 1 h; part of the chain shown.
As to B1, the “Proxy for plastic degradation” value stood at 70 µM.

On to B10, for which the “Proxy for plastic degradation” value came out at 11 µM.

The same data set, now with this note: pH 9; 40 °C; 2 h; part of the chain shown.
For the protein B1, the “Proxy for plastic degradation” value came to 82 µM.

In the case of B10, the “Proxy for plastic degradation” value worked out at 10 µM.

Staying with this data set, now noted: pH 9; 40 °C; 3 h; part of the chain shown.
Take B1: the “Proxy for plastic degradation” value worked out at 105 µM.

Consider B10, for which the “Proxy for plastic degradation” value was 10 µM.

Still in this data set, the particulars now being: pH 9; 40 °C; 4 h; part of the chain shown.
For B1, the “Proxy for plastic degradation” value was found to be 100 µM.

For B10, the “Proxy for plastic degradation” value came out at 10 µM.

The data set is the same for the next values; noted with them: pH 9; 40 °C; 5 h; part of the chain shown.
Take B1: the “Proxy for plastic degradation” value was 102 µM.

For the protein B10, the “Proxy for plastic degradation” value came out at 7 µM.

The same data set, now with this note: pH 9; 40 °C; 6 h; part of the chain shown.
Turning to B1, the “Proxy for plastic degradation” value is 104 µM.

As for B10, the “Proxy for plastic degradation” value came to 8 µM.

Still in this data set, the particulars now being: pH 9; 40 °C; 7 h; part of the chain shown.
For the protein B1, the “Proxy for plastic degradation” value turned out to be 100 µM.

Regarding B10, the “Proxy for plastic degradation” value is 9 µM.

Staying with this data set, now noted: pH 9; 40 °C; 8 h; part of the chain shown.
Take B1: the “Proxy for plastic degradation” value was 104 µM.

Take B10: the “Proxy for plastic degradation” value came out at 8 µM.

Still in this data set, the particulars now being: pH 9; 40 °C; 9 h; part of the chain shown.
As for B1, the “Proxy for plastic degradation” value is 115 µM.

With B10, the “Proxy for plastic degradation” value came out at 7 µM.

The same data set, now with this note: pH 9; 40 °C; 10 h; part of the chain shown.
On to B1, for which the “Proxy for plastic degradation” value came to 108 µM.

With B10, the “Proxy for plastic degradation” value was 8 µM.

Still in this data set, the particulars now being: pH 9; 30 °C; 24 h.
For the protein B2, the “Proxy for plastic degradation” value amounted to 3.5 µM.

Take B3: the “Proxy for plastic degradation” value was 6 µM.

On to B4, for which the “Proxy for plastic degradation” value amounted to 4.2 µM.

Take B5: the “Proxy for plastic degradation” value was found to be 5.3 µM.

B6: the “Proxy for plastic degradation” value turned out to be 2.1 µM.

For B7, the “Proxy for plastic degradation” value turned out to be 2.4 µM.

With B8, the “Proxy for plastic degradation” value stood at 2.3 µM.

For the protein B9, the “Proxy for plastic degradation” value amounted to 15.2 µM.

Turning to B11, the “Proxy for plastic degradation” value came to 10.8 µM.

The same data set, now with this note: pH 9; 30 °C; 72 h.
For the protein B2, the “Proxy for plastic degradation” value came to 4.9 µM.

B3: the “Proxy for plastic degradation” value worked out at 11.4 µM.

In the case of B4, the “Proxy for plastic degradation” value was determined as 7.8 µM.

With B5, the “Proxy for plastic degradation” value was found to be 24.3 µM.

Turning to B6, the “Proxy for plastic degradation” value came out at 3.1 µM.

Take B7: the “Proxy for plastic degradation” value was 4 µM.

As for B8, the “Proxy for plastic degradation” value was found to be 3.3 µM.

In the case of B9, the “Proxy for plastic degradation” value was found to be 23.2 µM.

B11: the “Proxy for plastic degradation” value turned out to be 19 µM.

The same data set, now with this note: pH 9; 40 °C; 24 h.
With B2, the “Proxy for plastic degradation” value came to 1.9 µM.

On to B3, for which the “Proxy for plastic degradation” value was 7.5 µM.

For B4, the “Proxy for plastic degradation” value was 7.5 µM.

Turning to B5, the “Proxy for plastic degradation” value amounted to 2.6 µM.

Consider B6, for which the “Proxy for plastic degradation” value was found to be 2 µM.

Consider B7, for which the “Proxy for plastic degradation” value stood at 1.9 µM.

As for B8, the “Proxy for plastic degradation” value turned out to be 1.2 µM.

Turning to B9, the “Proxy for plastic degradation” value came out at 28.9 µM.

Turning to B11, the “Proxy for plastic degradation” value worked out at 3.6 µM.

The same data set, now with this note: pH 9; 40 °C; 72 h.
Take B2: the “Proxy for plastic degradation” value is 2.2 µM.

Consider B3, for which the “Proxy for plastic degradation” value was determined as 14.4 µM.

Consider B4, for which the “Proxy for plastic degradation” value is 7.6 µM.

Take B5: the “Proxy for plastic degradation” value was 7.2 µM.

B6: the “Proxy for plastic degradation” value came out at 7.1 µM.

Regarding B7, the “Proxy for plastic degradation” value was 7.1 µM.

Consider B8, for which the “Proxy for plastic degradation” value was 1.7 µM.

Regarding B9, the “Proxy for plastic degradation” value worked out at 38.4 µM.

Regarding B11, the “Proxy for plastic degradation” value was 5.2 µM.
